Results on four substances are retold here after patent US20120094898A1, “PEPTIDE DERIVATIVE” (Takeda Pharmaceutical Company Limited, priority 2010, published 2012).

Data set [1] concerns male C57BL/6J mice. Briefly: Subcutaneous administration test in mice (anorectic activity, food intake). The class given is in vivo. The conditions noted are these: 600 nmol/kg/day subcutaneous, food intake 1 day after initiation of administration, vs solvent control. As to the method: Subcutaneous Administration Test in Mice Anorectic activity of the test compounds was evaluated by the following method. Each of the test compounds was dissolved in a solvent (physiological saline), and an amount of 600 nmol/kg/day was used. An amount of 2 mL/Kg of an administration liquid obtained by dissolving each test compound in physiological saline was subcutaneously administered to the back of 9- to 10-week-old male C57BL/6J mice (CLEA Japan, Inc.) (at 25° C., having free access to food and water, 12 hours of light period and 12 hours of dark period). After the administration, the mice were returned to breeding cages (individual feeding), pre-weighed food was given, and the food intake 1 day after the initiation of the administration was measured. The food intake was calculated by subtracting the weight of the food remaining from the weight of the food given on the day the administration was initiated. Based on the calculated food intake, the anorectic ratio (%) of each test compound was calculated using the following formula. […] The group where only the solvent was administered as described above was used as a control group. Food Intake Inhibition (%): {(food intake of the control group−food intake of a test compound administration group)/food intake of the control group}×100

Data set [2] addresses T1, human NMUR2 (Homo sapiens, UniProt Q9GZQ4).
T1 construct: expressed in transfected cells
Description: Ca influx assay using CHO cells expressing human NMUR2. The class given is cell-based. The conditions noted are these: CHO cells stably expressing human NMUR2; intracellular Ca elevation, FLIPR Tetra; relative to 1 μM porcine NMU-8; read-out: hNMUR2 EC50. As to the method: (§1) Ca Influx Assay Using CHO Cells Expressing Human NMUR1 or NMUR2
(§2) CHO cells stably expressing human NMUR1 or NMUR2 (J Biol Chem 275(28), pp. 21068-21074 (2000); and J Biol Chem 275(38), pp. 29528-29532 (2000)) were seeded onto a 384-well black/clear plate (Becton Dickinson) (10,000 cells per well) using nucleic acid-free MEM-α medium (Nikken Bio Medical Laboratory) containing 10% dialyzed blood serum (Gemini Bio Products) and 50 μg/mL gentamycin (Invitrogen), and cultured overnight in 5% carbon dioxide at 37° C. Then, after removal of the medium, the cells were loaded with Calcium Kit-Fluo 4 (Dojindo) containing 0.1% fatty acid-free BSA (Wako) at 37° C. (for 15 minutes). Further, test compounds at each concentration, as well as 1 μmol/L porcine NMU-8 (BACHEM) as a control group, were added to the cells, and an elevation of intracellular Ca concentration was monitored for 3 minutes using a FLIPR Tetra system (Molecular Devices). The agonist activity (%) of each of the test compounds for NMUR was calculated using the following formula: […]
(§3) wherein W represents a fluorescence value based on the intracellular Ca concentration in cells to which each test compound was added; X represents a fluorescence value based on the intracellular Ca concentration in cells to which only 0.1% DMSO was added; and Y represents a fluorescence value based on the intracellular Ca concentration in cells to which 1 μM porcine NMU-8 was added. The EC50 value of each test compound was calculated using Prism 5 (GraphPad).

In data set [3] the target is T2, human NMUR1 (Homo sapiens, UniProt Q9HB89).
T2 construct: expressed in transfected cells
T2 sequence (Q9HB89 1-426): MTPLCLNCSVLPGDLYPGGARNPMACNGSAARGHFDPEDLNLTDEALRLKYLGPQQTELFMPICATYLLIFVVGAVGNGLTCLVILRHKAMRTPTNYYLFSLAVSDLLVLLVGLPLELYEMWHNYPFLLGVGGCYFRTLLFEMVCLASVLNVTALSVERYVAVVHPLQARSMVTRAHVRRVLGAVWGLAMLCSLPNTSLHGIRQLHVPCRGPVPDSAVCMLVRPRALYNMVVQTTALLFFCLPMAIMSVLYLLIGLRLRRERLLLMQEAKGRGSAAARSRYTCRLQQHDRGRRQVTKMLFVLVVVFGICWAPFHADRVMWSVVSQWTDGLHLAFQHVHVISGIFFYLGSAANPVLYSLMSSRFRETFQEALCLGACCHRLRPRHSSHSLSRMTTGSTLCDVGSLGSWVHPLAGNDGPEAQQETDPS
Description: Ca influx assay using CHO cells expressing human NMUR1. The class given is cell-based. The conditions noted are these: CHO cells stably expressing human NMUR1; intracellular Ca elevation, FLIPR Tetra; relative to 1 μM porcine NMU-8; read-out: hNMUR1 EC50. On the procedure:
as §1, §2, §3

Data set [4] relates to cynomolgus monkeys. Description: Single subcutaneous administration test in monkeys (emetic response). The data set is classed as in vivo. As to the method:
Single Subcutaneous Administration Test in Monkeys
The emetic response induced by the test compounds was evaluated by the following method.
The test compound C was dissolved in physiological saline at a concentration of 1,000 nmol/kg and the test compound D was dissolved in physiological saline at a concentration of 300 nmol/kg, and used separately. An administration liquid obtained by dissolving each test compound in physiological saline was subcutaneously administered to the back of cynomolgus monkeys (2 males and 2 females each, 3 years and 11 months old to 4 years and 4 months old). After the administration, the animals were immediately returned to their individual cages, and videotaped for 10 hours. Vomiting and dry heaves observed during the videotaping were counted. Vomits were counted as the number of instances of vomiting up to 24 hours after the completion of the videotaping.

Non-standard residues stand in square brackets, D forms with d. Primed or numbered codes have the meaning given here. *: point of attachment. Acetyl(2-(piperazin-1-yl)) = O=C(CN1CCNCC1)*; 2Nal = N[C@@H](Cc1ccc2ccccc2c1)C(=O)O; Pic(4) = not defined here; NMeA = CN[C@@H](C)C(=O)O; Ahx = NCCCCCC(=O)O

T1 sequence (Q9GZQ4 whole entry): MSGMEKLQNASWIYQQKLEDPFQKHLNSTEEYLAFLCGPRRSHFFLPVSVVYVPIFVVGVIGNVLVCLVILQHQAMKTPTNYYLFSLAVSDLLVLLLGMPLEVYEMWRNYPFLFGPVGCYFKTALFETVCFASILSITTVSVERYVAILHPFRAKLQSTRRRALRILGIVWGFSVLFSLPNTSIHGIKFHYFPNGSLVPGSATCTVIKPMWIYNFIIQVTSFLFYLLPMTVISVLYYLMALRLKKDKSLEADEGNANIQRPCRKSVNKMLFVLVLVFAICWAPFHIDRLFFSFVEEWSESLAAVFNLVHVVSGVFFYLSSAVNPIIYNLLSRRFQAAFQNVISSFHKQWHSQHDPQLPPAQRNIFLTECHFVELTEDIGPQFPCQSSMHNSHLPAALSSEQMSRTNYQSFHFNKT

Take “PEG20k(AL)-Pic(4)0,Nal(2)2,NMeAla6-NMU-8 ({PEG20k(AL)-Pic(4)}-Y[2Nal]LFR[NMeA]RN-NH2; reading uncertain) [Compound F, PEG20k(AL)-Pic(4)-Tyr-Nal(2)-Leu-Phe-Arg-NMeAla-Arg-Asn-NH2]”: the “Food intake Inhibition” value in data set [1] was determined as 74.3%. In addition, the concentration for a half-maximal effect (EC50) is 54 nM in data set [2] and more than 1000 nM in data set [3].
In the case of “PEG20k(AL)-NpipAc0,Nal(2)2,Ala6-NMU-8 ({PEG20k(AL)-Acetyl(2-(piperazin-1-yl))}-Y[2Nal]LFRARN-NH2) [Compound D, PEG20k(AL)-NpipAc-Tyr-Nal(2)-Leu-Phe-Arg-Ala-Arg-Asn-NH2]”, in data set [4] (300 nmol/kg single subcutaneous, n = 4 (2 males, 2 females)), the “No. of vomiting (0-24 h)” value came out at 0. The “emetic response (vomiting), result in words” value in data set [4] (single subcutaneous, C 1,000 nmol/kg, D 300 nmol/kg) is on record as “prevent vomiting”. The “Food intake Inhibition” value in data set [1] was determined as 70.5%. Moreover, the results for the EC50 in data set [2] and in data set [3] were 8.8 nM and more than 1000 nM, respectively.
Regarding “PEG20k(AL)-PEG(2)0,Nal(2)2,NMeAla6-NMU-8 ({PEG20k(AL)-PEG(2)}-Y[2Nal]LFR[NMeA]RN-NH2) [PEG20k(AL)-PEG(2)-Tyr-Nal(2)-Leu-Phe-Arg-NMeAla-Arg-Asn-NH2]”, the “Food intake Inhibition” value in data set [1] is 68.6%. Moreover, the EC50 in data set [2] was 39 nM; in data set [3] it was more than 1000 nM.
In the case of “PEG20k(AL)-Acp0,Nal(2)2,NMeAla6-NMU-8 ({PEG20k(AL)-Ahx}-Y[2Nal]LFR[NMeA]RN-NH2) [Compound G, PEG20k(AL)-Acp-Tyr-Nal(2)-Leu-Phe-Arg-NMeAla-Arg-Asn-NH2]”, the “Food intake Inhibition” value in data set [1] turned out to be 71.4%. The results for the EC50 in data set [2] and in data set [3] were 5.9 nM and 170 nM, respectively.
